The target of assay [1] is T1, proliferating cell nuclear antigen, transcript variant 1 (human, UniProt P12004 1-261).
T1 construct: on protein array; also called PCNA
In words: protein array.

In a further assay the target is T2, Dexd-box helicase 52 (human, UniProt Q9Y2R4 1-599).
T2 construct: on protein array; also called DDX52
T2 sequence: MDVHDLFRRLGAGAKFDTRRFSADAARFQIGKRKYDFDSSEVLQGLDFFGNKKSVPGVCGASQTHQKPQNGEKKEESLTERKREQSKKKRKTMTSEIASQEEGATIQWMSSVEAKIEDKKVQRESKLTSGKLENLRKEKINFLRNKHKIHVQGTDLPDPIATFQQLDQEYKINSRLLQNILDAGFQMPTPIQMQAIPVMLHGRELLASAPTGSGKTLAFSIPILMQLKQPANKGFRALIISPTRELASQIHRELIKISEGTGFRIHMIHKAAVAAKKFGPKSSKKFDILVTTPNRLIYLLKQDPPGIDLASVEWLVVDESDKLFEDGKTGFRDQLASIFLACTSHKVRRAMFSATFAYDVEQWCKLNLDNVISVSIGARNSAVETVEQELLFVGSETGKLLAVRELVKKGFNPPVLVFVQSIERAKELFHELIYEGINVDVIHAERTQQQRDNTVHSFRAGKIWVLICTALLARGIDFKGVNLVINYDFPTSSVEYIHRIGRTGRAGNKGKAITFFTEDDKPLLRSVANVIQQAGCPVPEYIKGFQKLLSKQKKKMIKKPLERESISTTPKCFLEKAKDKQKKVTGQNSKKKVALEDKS
The assay is described as follows: protein array.

The target of assay [2] is T3, G protein-coupled receptor 4 (human, UniProt P46093 1-362).
T3 construct: on protein array; also called GPR4
T3 sequence (P46093 whole entry): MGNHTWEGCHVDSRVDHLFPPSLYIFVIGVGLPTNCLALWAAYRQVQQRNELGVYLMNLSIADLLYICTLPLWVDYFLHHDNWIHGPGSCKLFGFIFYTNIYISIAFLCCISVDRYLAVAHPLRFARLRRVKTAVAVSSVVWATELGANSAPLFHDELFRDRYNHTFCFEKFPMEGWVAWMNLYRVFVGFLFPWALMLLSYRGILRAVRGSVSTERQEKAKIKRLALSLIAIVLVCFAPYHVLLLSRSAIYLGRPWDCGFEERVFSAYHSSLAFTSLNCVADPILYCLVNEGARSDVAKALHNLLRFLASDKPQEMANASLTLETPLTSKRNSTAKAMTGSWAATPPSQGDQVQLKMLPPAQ
The assay is described as follows: protein array.

The target in another assay is T4, programmed cell death 1 (human, UniProt Q15116 25-288).
T4 construct: on protein array; also called PDCD1
T4 sequence (Q15116 25-288 limits assumed): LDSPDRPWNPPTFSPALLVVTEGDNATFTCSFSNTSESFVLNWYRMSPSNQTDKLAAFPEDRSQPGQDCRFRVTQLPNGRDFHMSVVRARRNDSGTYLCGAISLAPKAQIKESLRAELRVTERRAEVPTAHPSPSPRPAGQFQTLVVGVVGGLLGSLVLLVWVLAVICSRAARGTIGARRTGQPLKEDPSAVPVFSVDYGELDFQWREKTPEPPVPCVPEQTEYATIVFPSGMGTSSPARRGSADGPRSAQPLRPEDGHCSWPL
The assay is described as follows: protein array, with experimental replicate.

Assay [3] addresses T5, acyl-CoA binding domain containing 6 (human, UniProt Q9BR61 1-282).
T5 construct: on protein array; also called ACBD6
T5 sequence: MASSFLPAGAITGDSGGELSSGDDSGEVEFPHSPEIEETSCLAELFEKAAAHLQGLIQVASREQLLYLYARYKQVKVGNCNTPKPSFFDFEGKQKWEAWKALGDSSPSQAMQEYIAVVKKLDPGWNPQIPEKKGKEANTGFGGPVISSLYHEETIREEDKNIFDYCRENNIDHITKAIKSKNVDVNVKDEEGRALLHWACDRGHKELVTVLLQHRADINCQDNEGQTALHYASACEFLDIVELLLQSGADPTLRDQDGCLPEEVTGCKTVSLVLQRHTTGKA
In words: protein array.

The next assay addresses T6, G antigen 2A (human, UniProt Q6NT46 1-116).
T6 construct: on protein array; also called GAGE2A
T6 sequence: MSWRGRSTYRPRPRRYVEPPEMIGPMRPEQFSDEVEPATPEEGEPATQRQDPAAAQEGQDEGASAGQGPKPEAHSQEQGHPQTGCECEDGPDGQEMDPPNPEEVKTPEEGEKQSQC
In words: protein array.

Assay [4] concerns the target T7, glyoxylate and hydroxypyruvate reductase (human, UniProt Q9UBQ7 1-328).
T7 construct: on protein array; also called GRHPR
T7 sequence: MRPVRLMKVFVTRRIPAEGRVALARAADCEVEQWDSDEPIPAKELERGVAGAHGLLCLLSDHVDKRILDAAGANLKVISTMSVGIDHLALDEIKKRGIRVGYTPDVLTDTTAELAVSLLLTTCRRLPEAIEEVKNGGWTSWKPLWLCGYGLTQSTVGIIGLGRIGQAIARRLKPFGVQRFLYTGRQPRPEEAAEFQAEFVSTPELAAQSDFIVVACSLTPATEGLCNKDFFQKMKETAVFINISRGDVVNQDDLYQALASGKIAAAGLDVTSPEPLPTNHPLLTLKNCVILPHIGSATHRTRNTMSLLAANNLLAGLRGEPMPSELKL
The assay is described as follows: protein array.

Assay [5] has as its target T8, phosphoglucomutase 2 like 1 (human, UniProt Q6PCE3 1-622 at identity 1.00)).
T8 construct: on protein array; also called PGM2L1
T8 sequence: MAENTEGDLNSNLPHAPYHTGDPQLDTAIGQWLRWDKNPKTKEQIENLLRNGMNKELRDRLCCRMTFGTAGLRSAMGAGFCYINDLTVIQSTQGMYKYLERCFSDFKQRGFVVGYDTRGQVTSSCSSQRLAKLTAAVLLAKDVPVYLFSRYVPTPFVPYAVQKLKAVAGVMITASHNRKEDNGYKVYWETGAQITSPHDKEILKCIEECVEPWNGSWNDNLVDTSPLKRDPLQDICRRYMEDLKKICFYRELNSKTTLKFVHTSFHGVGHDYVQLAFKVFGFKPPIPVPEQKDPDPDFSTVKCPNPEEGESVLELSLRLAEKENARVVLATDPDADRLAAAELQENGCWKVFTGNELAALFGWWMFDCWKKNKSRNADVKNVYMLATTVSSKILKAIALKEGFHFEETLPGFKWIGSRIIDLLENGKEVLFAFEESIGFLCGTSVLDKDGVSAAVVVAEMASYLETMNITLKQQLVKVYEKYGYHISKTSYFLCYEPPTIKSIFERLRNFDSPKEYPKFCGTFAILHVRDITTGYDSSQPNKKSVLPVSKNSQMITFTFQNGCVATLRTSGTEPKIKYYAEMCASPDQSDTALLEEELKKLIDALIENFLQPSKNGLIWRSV
The assay is described as follows: protein array.

Assay [6] addresses T9, influenza virus NS1A binding protein (human, UniProt Q9Y6Y0 1-642).
T9 construct: on protein array; also called IVNS1ABP
T9 sequence: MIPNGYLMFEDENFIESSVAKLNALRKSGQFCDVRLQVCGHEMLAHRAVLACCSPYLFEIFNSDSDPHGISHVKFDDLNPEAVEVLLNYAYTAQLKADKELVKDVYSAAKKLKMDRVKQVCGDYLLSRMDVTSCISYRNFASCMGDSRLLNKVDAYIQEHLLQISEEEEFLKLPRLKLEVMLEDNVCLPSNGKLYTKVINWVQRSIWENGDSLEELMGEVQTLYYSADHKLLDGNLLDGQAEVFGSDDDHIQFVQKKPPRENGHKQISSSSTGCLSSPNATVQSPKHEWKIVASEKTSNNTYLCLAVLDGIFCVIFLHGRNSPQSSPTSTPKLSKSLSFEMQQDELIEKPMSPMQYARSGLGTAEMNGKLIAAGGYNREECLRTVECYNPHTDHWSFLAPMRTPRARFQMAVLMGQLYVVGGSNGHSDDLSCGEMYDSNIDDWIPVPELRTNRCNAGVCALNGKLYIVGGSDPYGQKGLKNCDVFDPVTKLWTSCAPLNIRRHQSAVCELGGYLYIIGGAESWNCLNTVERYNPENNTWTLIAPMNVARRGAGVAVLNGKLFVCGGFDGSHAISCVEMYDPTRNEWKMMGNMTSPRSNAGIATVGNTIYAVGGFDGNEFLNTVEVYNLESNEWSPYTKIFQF
The assay is described as follows: protein array.

The target of assay [7] is T10, BAF chromatin remodeling complex subunit BCL7C, transcript variant 2 (human, UniProt Q8WUZ0 1-217).
T10 construct: on protein array
In words: protein array.

The next assay has as its target T11, phosducin like (human, UniProt Q13371 2-301).
T11 construct: on protein array; also called PDCL
T11 sequence: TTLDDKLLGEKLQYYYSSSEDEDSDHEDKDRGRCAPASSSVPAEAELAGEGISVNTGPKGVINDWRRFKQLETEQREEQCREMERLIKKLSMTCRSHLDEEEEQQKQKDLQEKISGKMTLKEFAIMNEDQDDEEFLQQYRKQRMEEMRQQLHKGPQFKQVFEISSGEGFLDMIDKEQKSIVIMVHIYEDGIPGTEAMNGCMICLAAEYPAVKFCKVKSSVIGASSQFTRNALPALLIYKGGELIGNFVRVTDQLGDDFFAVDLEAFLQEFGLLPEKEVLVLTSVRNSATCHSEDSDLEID
The assay is described as follows: protein array.

T1 sequence (P12004 whole entry, change not shown): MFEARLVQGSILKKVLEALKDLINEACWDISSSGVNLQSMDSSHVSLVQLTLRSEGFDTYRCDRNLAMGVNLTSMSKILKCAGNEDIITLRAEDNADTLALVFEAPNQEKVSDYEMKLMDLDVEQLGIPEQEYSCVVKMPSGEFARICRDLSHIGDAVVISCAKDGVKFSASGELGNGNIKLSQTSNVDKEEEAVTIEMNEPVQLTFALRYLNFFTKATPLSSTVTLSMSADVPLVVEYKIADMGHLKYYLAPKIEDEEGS

B1: TTHY1002 (antibody, V domains shown)
VH: EVQVVESGGGLGQPGGSLRLSCAASGFTFSSYSMNWVRQAPGKGLEWVSYISSSSSTKYYADSVKGRFTISRDNAKKSLYLQMNSLRDEDTAVYYCASPVRPWGQGTLVTVSS
VL: EIVMTQSPATLSVSPGERATLSCRASQSVSSNLAWYQQKPGQAPRLLIYGASTRATGIPARFSGSGSGTEFTLTISSLQSEDFAIYYCQQYNSWPAFGGGTKVEIK
notes: VH/VL tied via antigen in summary, not by name in this stretch
Take B1: the binding result in [1] is listed as “binds”.

B2: TTES1008 (antibody, V domains shown)
VH: QVQLVESGGGVVQPGRSLRLSCAASGFIFSSYGMHWVRQAPGKGLEWVAVISYDGSNKYYADSVKGRFTISRDKSKNTLHLQMNSLRAEDTAVYYCAKDSGSNDDMDVWGKGTTVTVSS
VL: QSVLTQPPSVSAAPGQKVTISCSGSSSNIGNNYVSWYQQLPGTAPKLLIYDNNKRPSGIPDRFSGSKSGTSATLGITGLQTGDEADYYCGTWDSSLSAGVFGTGTKVTVLG
notes: as for B1
On to B2, for which the binding result (with Dexd-box helicase 52; in [2]) was “binds” each time.

B3: TTES1003 (antibody, V domains shown)
VH: VVQLVESGGGLVQPGGSLRLSCSASGFTFSSYAMHWVRQAPGKGLEYVSAISSNGGSTYYADSVKGRFTISRDNSKNTLYLQMSSLRAEDTAVYYCVKSPVAANDAFDIWGQGTMVTVSS
VL: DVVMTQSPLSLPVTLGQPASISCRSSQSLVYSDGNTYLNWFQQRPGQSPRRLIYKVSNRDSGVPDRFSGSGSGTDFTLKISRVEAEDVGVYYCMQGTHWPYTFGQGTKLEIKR
notes: as for B1
As to B3, the binding result with programmed cell death 1 is recorded as “binds”.

B4: TTES1006 (antibody, V domains shown)
VH: EVQLVESGGGLVQPGGSLRLSCAASGFTFSKFWMHWVRQAPGKGLVWLSRINTDGTVTTYADSVKGRFTISRDNAKSTLYLQMNSLRVEDTAVYYCAGGGSQVDFWGQGTLVTVSS
VL: PYELTQPPSVSVSPGQTASIACSGDNLGNKYAWWYRQKPGQSPVLVMYKDNKRPSGIPERFSGSNSGNTATLTISGTQAMDEADYYCQTWDSSTVIFGGGTKLTVQ
notes: as for B1
B4: in assay [3], the binding result is on record as “binds”.

B5: TTES1012 (antibody, V domains shown)
VH: EVQLVESGGGLVQPGGSLRLSCAASGFTFSSYWMTWVRQAPGKGLEWVANIKQDGSEKYYVDSVKGRFTISRDNSKNSLYLQMNSLRAEDTAVYYCARAGYDLFGWFDPWGQGTLVTVSS
VL: SYELTQPPSVSVSPGQTARITCSGDALPKQYAYWYQQKPGQAPVLVIYKDSERPSGIPERFSGSSSGTTVTLTISGVQAEDEADYYCQSADSSGTYVFGTGTKVTVLG
notes: as for B1
Consider B5, for which, in the assay with G antigen 2A, the binding result was “binds”.

B6: TTES1004 (antibody, V domains shown)
VH: EVQLVESGGGLVQPGGSLRLSCVASGFTFSSYSMNWVRQAPGKGLKWVSYISSSRSTIYNADSVKGRFTISRDNAKKSLYLQMNSLRAEDTAVYYCARVSVAAPTCLDYWGQGTLVTVSS
VL: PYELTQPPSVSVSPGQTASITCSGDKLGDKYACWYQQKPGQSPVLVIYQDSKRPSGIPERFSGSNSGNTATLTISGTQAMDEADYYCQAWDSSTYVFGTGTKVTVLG
notes: as for B1
For B6, in assay [4], the binding result was “binds”.

B7: TTES1002 (antibody, V domains shown)
VH: QVQLQESGPGLVKPSETLSLICTVSGASVNSGTHFWSWIRQPPGKGLEWIGYVYYSGNTNYNPSLKSRVAISVDTSKNQFSLKLTSVTSADTAVYYCARDFDDGYDIRYWGQGTRVSVSS
VL: QSALTQPASVSGSPGQSITISCTGSSNDIGRYKYVSWFQHHPGRAPKLIIYEVNNRPSGLSHRFSGSKSGNTASLTISGLQAEDEADYYCCSYTSSLTYVFGTGTAVTVL
notes: as for B1
For the molecule B7, in assay [5], the binding result is on record as “binds”.

B8: TTHY1003 (antibody, V domains shown)
VH: QVQLVQSGAEMKKPGTSVKVSCRTSGYIFTGSFMHWVRQAPAQGLEWMGWINPKTGATYYTEKFKGRVTLTRDTSINTAYMEMTSLRSDDTAVYYCARGFCDLPACYPVPQYNWFDPWGQGTLVTVSS
VL: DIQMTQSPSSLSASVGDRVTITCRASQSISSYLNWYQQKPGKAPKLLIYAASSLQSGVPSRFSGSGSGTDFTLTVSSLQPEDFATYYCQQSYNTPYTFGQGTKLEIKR
notes: as for B1
On to B8, for which the binding result in assay [6] and in [7] was “binds” throughout.

B9: TTES1007 (antibody, V domains shown)
VH: QITLKESGPTLVKPTQTLTLTCTFSGFSLTTTGVGVGWIRQPPGKALEWLALIYWDDDKRYSPSLKSRLIITKDTSKNQVVLTMTNMDPVDTATYYCAHRFGRGVSYYYYGMDVWGQGTTVTVSS
VL: not shown
notes: as for B1
B9: in the assay with phosducin like, the binding result was “binds”.
